Target: the molecule itself
Test: MALDI-TOF MS

B1: human recombinant glutamate-oxaloacetate transaminase (enzyme, UniProt P17174 1-413, looked up)
chain: MAPPSVFAEVPQAQPVLVFKLTADFREDPDPRKVNLGVGAYRTDDCHPWVLPVVKKVEQKIANDNSLNHEYLPILGLAEFRSCASRLALGDDSPALKEKRVGGVQSLGGTGALRIGADFLARWYNGTNNKNTPVYVSSPTWENHNAVFSAAGFKDIRSYRYWDAEKRGLDLQGFLNDLENAPEFSIVVLHACAHNPTGIDPTPEQWKQIASVMKHRFLFPFFDSAYQGFASGNLERDAWAIRYFVSEGFEFFCAQSFSKNFGLYNERVGNLTVVGKEPESILQVLSQMEKIVRITWSNPPAQGARIVASTLSNPELFEEWTGNVKTMADRILTMRSELRARLEALKTPGTWNHITDQIGMFSFTGLNPKQVEYLVNEKHIYLLPSGRINVSGLTTKNLDYVATSIHEAVTKIQ
B1 was tested, and the “stoichiometry N” value was 2.
